# Source: the RNAGym collection of RNA variant scans (doi:10.1073/pnas.2313332121)
# This sample holds only a part of the variants without activity.
# B1: TPR 5TU (parent)
# chain: GGAUCUUCUCGAUCUAACAAAAAAGACAAAUCUGCCACAAAGCUUGAGAGCAUCUUCGGAUGCAGAGGCGGCAGCCUUCGGUGGCGCGAUAGCGCCAACGUUCUCAACUAUGACACGCAAAACGCGUGCUCCGUUGAAUGGAGUUUAUCAUG
# Variants of: B1
# Experiment: polymerase ribozyme fitness, log enrichment relative to wild type (log ratio); higher = more active; in vitro selection for triplet polymerase activity
# How it was run: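 Fitness measures genotype enrichment against wild-type enrichment on a logarithmic scale, with inverse-variance-weighted averaging of replicates. The logarithm is base 2, and genotypes were kept only with ≥10 input reads and ≥1 read per output in Illumina sequencing. The sequenced libraries came from one triplicate in vitro selection round, including frozen incubation at −7 °C, of PCR-built, transcribed mutant libraries of each subunit of a heterodimeric triplet polymerase ribozyme.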
row,Variant,polymerase ribozyme fitness (log ratio)
1,GGAUCUUCUCGAUCUAACAAAAAAGACAAAUCUGCCACAAAGCUUGACAGCAUCUUCGGAUGCAGAGGCGGCAGCCUUCGGUGGCGCGAUAGCUCUAACGUUCUCAACUAUGACACGGAAAUCGCGUGCUCCGUUGAAUGGAGUUUAUCAUG,-3.42
2,GGAUCUUCUCGAUCUAACAAAAAAGACAAAUCUGCCACAAAGCUUGACAGCAUCUUCCGAUGAAGAGGCGGCACCCUUCGAUGGCGCGUUAGCGCCAACGUUCUCAACUAUGACACGCAAAACGCGUGCUCCGUUGCAUGGAGUUUAUCAUG,≤ -4.2
3,GGAUCUUCUCGAUCUAACAAAAAAGACAAAUCUGCCACAAAGCUUGACAGCAACUUCGGAUGCAGAGGCGGCACCCUUCGGUGGUGCGAUAGCGCCAAUGUUCUCAACUAUGACACGCGGAACGCGUGCUCCGUUGAAUGGAGUUUAUCAUG,≤ -4.2
4,GGAUCUUCUCGAUCUAACAAAAAAGACAAAUCUGCCACAAAGCUUGACAGCAUCUUCGGAUGCAGAGGCGGCAGCCUUCGGUGGCGCGAUAGCGCCAACGUUCUCAACUAUGACACGCAAAACGCGUGCUCCGUUGAAUGGAUUUUAUCAUG,-2.25
5,GGAUCUUCUCGAUCUAACAAAAAAGACAAAUCUGCCACAAAGCUUGACAGCAUCUUCGGAUGCAGAGGCAGCAGCCUUCGGUGGCGCUAUAGCGCGAACGUUCUCAACUAUGACACGCAAAACGCGUGCUCCGUUGAAUGGAGUUUAUCAUG,≤ -4.2
6,GGAUCUUCUCGAUCUAACAAAAAAGACAAAUCUGCCACAAAGCUUGACAGCAUCUUCGGAUGCAGAGGCGGCAGCCUUCGGUGCAGCGAUAGCGCCAACGUUCUCAACUUUGACACGCAAAACGAGUGCUCCGUUGAAUGGAGUUUAUCAUG,≤ -4.2
7,GGAUCUUCUCGAUCUAACAAAAAAGACAAAUCUGCCACAAAGCUUGACAGCAUCUUCGGAUGCAGAGGCGGCAGCCUUCGGUGGCGCGAUAGCGCCAACGUUCUCAACUAUGACACGCAAAACGCGUGCUCCGUUGAAUGUAGUUUAUCAUG,-1.8
8,GGAUCUUCUCGAUCUAACAAAAAAGACAAAUCUGCCACAAAGCUUGACAGCAUCUUCGGAUGCAGAGGCGGCAGCCUUCGGUGGCGCGAUAGCGCCAACGUUCUCAACUAUGACACGCAAAACGCGUGCUCCGUUGAAUGAAGUUUAUCAUG,-3.64
9,GGAUCUUCUCGAUCUAACAAAAAAGACAAAUCUGCCACAAAGCUUGACAGCAUCUUCGGAUGCAGAGGCGGCAGCCUUCGGUGGCGCGAUAGCACCAACGUUCUCAACUAUGACACGCAAAACGCGUGCUCCGUUGAAUGGAGUUUAUCAUG,-0.224
10,GGAUCUUCUCGAUCUAACAAAAAAGACAAAUCUGCCACAAAGCUUGACAGCAUCUUCGCAUGCAGAGGCGGCGGCUUUCGGUGGCGCGAUAGCGCUAACGCUCUCAACUAUGACACGCAAAACGCGUGCUCCGUUGAAUGGAGUUUAUCAUG,-3.78
11,GGAUCUUCUCGAUCUAACAAAAAAGACAAAUCUGCCACAAAGCUUGACAGCAUCUUCGGAUGCAGAGGCGGCAGCCUUCGGUGGCGCGAUAUCGCCAACGUUCUCAACUAUGACACGCAAAACGCGUGCUCCGUUGAAUGGAGUUUAUCAUG,-1.69
12,GGAUCUUCUCGAUCUAACAAAAAAGACAAAUCUGCCACAAAGCUUGACAUCAUCUUCGGAUGCAGAGGCGGCAGCCUUCGGUGGCGCGAUACCGCCAACGUUCUCAACUAUGACACGCAAAACGCGUGCUCCGUUGAAUGGAGUGUAUCAUG,-4.11
13,GGAUCUUCUCGAUCUAACAAAAAAGACAAAUCUGCCACAAAGCUUGACAGCACCUUCGGAUGCAGAGGCGGCAGCCUUCGGUGGCGUGAUAGCGCCAACGUUCUCAACUAUGACACGCAAAACGCGUGCUCCGUUGAAUGGAGUCUAUCAUG,-2.69
14,GGAUCUUCUCGAUCUAACAAAAAAGACAAAUCUGCCACAAAGCUUGACAGCAUCUUCGGAUGCAGAGGCGGCAGCCUUCGGUGGCUCGAUAGCGAGAACGUUCUCAACUAUGACACCCAAAACGCGUGCUCCGUUAAAUGGAGUUUAUCAUG,≤ -4.2
15,GGAUCUUCUCGAUCUAACAAAAAAGACAAAUCUGCCACAAAGCUUGACAGCAUCUUCGGAUGCAGAGGCAGCAGGCUUCGGUGGCGGGAUAGGGCCAACGUUCUCAACUAUGACACGCAAAACGCGUGCUCCGUUGAAUAGAGUUUAUCAUA,-4.11
16,GGAUCUUCUCGAUCUAACAAAAAAGACAAAUCUGCCACAAAGCUUGACAGCAUCUUCGGAUGCAGAGGCGGCAGCCUUCGGUGGCGCGAUAGCGCCAACGUUCUCAACUAUGACACGCAAAACGCUUGCUCCGUUGAAUGGAGUUUAUCAUG,-0.372
17,GGAUCUUCUCGAUCUAACAAAAAAGACAAAUCUGCCACAAAGCUUGACAGCAUCUUCAGAUGCAGAGGCGGCAGCCUUCGGUGGCGCGAUGGCGCCAACGUUCUCAACUAUGACACGCAAAACGCGUGCUCCGUUGAAUGGAGUUUAUCAUG,-3.21
18,GGAUCUUCUCGAUCUAACAAAAAAGACAAAUCUGCCACAAAGCUUGACAGCAUCUUCGGAUGCAGAGGCGGCAGCCUUCGGUGACGCGAUAGCGCCAACGUUCUCAACUAUGACACGCAAGACGCGUGCUCCGAUGAAUGGAAUUUAUCAUG,-3.91
19,GGAUCUUCUCGAUCUAACAAAAAAGACAAAUCUGCCACAAAGCUUGACAGCAUCUUCGGAUGCAGAGGCGGCAGCCUUCGGUGGCGCGAUAGCUCCAACGUUUUCAACUAUGACACGCAAAACGCGUGCUCCGUUGAAUAGAGUUUAUCAUG,≤ -4.2
